T1: FcgRIIb (human, UniProt P31994 43-217)
T1 construct: extracellular domain; also called FcγRIIb; CD32B; not shown: His tag attached to the C terminus
T1 sequence (looked up): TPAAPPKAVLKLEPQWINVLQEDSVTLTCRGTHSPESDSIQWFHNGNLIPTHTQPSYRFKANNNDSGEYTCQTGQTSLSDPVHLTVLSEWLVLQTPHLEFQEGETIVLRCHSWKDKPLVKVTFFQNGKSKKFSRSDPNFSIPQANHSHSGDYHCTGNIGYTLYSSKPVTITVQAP

T2: FcgRIIaH (human, UniProt P12318 34-217)
T2 construct: extracellular domain; Allotype H131; also called FcγRIIa H; FcgRIIa type H; not shown: His tag attached to the C terminus
T2 sequence (looked up): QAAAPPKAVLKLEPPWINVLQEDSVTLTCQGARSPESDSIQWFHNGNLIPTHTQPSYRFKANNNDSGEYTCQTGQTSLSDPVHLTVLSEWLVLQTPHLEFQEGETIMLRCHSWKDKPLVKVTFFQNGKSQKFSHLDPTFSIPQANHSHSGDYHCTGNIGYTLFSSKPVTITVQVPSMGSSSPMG

T3: FcgRIIaR (human, UniProt P12318 34-217)
T3 construct: extracellular domain; Allotype R131; also called FcγRIIa R; FcgRIIa type R; not shown: His tag attached to the C terminus
T3 sequence (looked up): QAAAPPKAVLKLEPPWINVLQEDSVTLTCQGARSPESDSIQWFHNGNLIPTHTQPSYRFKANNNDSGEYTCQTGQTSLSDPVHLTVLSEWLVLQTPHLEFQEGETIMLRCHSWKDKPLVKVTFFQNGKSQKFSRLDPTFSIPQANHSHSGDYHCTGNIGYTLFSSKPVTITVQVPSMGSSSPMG

B1: H240-Kn138/H240-Hl068/L73-k0 (antibody, human IgG1, kappa)
heavy 1: QDQLVQSGAEVKKPGASVKVSCKASGFNIKDTYIQWVRQAPGQGLEWMGRIDPLRKQTKYREKFEGRVTITADTSTNTAYMELSSLRSEDTAVYYCVRSGREFDYWGQGTLVTVSSASTKGPSVFPLAPSSKSTSGGTAALGCLVKDYFPEPVTVSWNSGALTSGVHTFPAVLQSSGLYSLSSVVTVPSSSLGTQTYICNVNHKPSNTKVDKKVEPKSCDKTHTCPPCPAPEYYWGPMVFLFPPKPKDTLMISRTPEVTCVVVDVSDEDPEVKFNWYVDGVEVHNAKTKPREEQYNATYRVVSVLTVLHQDWLNGKEYKCKVSNKDWPAPIEKTISKAKGQPREPQVCTLPPSRDELTKNQVSLWCLVKGFYPSDIAVEWESNGQPENNYKTTPPVLDSDGSFFLYSKLTVDKSRWQQGNVFSCSVMHEALHNHYTQKSLSLSP
heavy 2: QDQLVQSGAEVKKPGASVKVSCKASGFNIKDTYIQWVRQAPGQGLEWMGRIDPLRKQTKYREKFEGRVTITADTSTNTAYMELSSLRSEDTAVYYCVRSGREFDYWGQGTLVTVSSASTKGPSVFPLAPSSKSTSGGTAALGCLVKDYFPEPVTVSWNSGALTSGVHTFPAVLQSSGLYSLSSVVTVPSSSLGTQTYICNVNHKPSNTKVDKKVEPKSCDKTHTCPPCPAPELLGGPSVFLFPPKPKDTLMISRTPEVTCVVVDVSHEEPEVKFNWYVDGVEVHNAKTKPREEQYNSTYRVVSVLTVLHQDWLNGKEYKCKVSNDALPKPIEETISKAKGQPREPQVYTLPPSRCELTKNQVSLSCAVKGFYPSDIAVEWESNGQPENNYKTTPPVLDSDGSFFLVSKLTVDKSRWQQGNVFSCSVMHEALHNHYTQKSLSLSP
light: DIQMTQSPSSLSASVGDRVTITCRASQDIHKYIAWYQQKPGQAPRLLIQYTSTLQPGVPSRFSGSGSGTDYTFTISSLQPEDIATYYCLQYEQLRTFGGGTKVEIKRTVAAPSVFIFPPSDEQLKSGTASVVCLLNNFYPREAKVQWKVDNALQSGNSQESVTEQDSKDSTYSLSSTLTLSKADYEKHKVYACEVTHQGLSSPVTKSFNRGEC
notes: Heterodimerized anti-epiregulin IgG1 antibody; L328W in H240-Kn120
B2: H240-Kn138/H240-Hl147/L73-k0 (antibody, human IgG1, kappa)
heavy 1: QDQLVQSGAEVKKPGASVKVSCKASGFNIKDTYIQWVRQAPGQGLEWMGRIDPLRKQTKYREKFEGRVTITADTSTNTAYMELSSLRSEDTAVYYCVRSGREFDYWGQGTLVTVSSASTKGPSVFPLAPSSKSTSGGTAALGCLVKDYFPEPVTVSWNSGALTSGVHTFPAVLQSSGLYSLSSVVTVPSSSLGTQTYICNVNHKPSNTKVDKKVEPKSCDKTHTCPPCPAPEYYWGPMVFLFPPKPKDTLMISRTPEVTCVVVDVSDEDPEVKFNWYVDGVEVHNAKTKPREEQYNATYRVVSVLTVLHQDWLNGKEYKCKVSNKDWPAPIEKTISKAKGQPREPQVCTLPPSRDELTKNQVSLWCLVKGFYPSDIAVEWESNGQPENNYKTTPPVLDSDGSFFLYSKLTVDKSRWQQGNVFSCSVMHEALHNHYTQKSLSLSP
heavy 2: QDQLVQSGAEVKKPGASVKVSCKASGFNIKDTYIQWVRQAPGQGLEWMGRIDPLRKQTKYREKFEGRVTITADTSTNTAYMELSSLRSEDTAVYYCVRSGREFDYWGQGTLVTVSSASTKGPSVFPLAPSSKSTSGGTAALGCLVKDYFPEPVTVSWNSGALTSGVHTFPAVLQSSGLYSLSSVVTVPSSSLGTQTYICNVNHKPSNTKVDKKVEPKSCDKTHTCPPCPAPELLGGPSVFLFPPKPKDTLMISRTPEVTCVVVDVSHEEPEVKFNWYVDGVEVHNAKTKPREEQYNSTYRVVSVLTVLHQDWLNGKEYKCKVSNDAWPKPIEETISKAKGQPREPQVYTLPPSRCELTKNQVSLSCAVKGFYPSDIAVEWESNGQPENNYKTTPPVLDSDGSFFLVSKLTVDKSRWQQGNVFSCSVMHEALHNHYTQKSLSLSP
light: DIQMTQSPSSLSASVGDRVTITCRASQDIHKYIAWYQQKPGQAPRLLIQYTSTLQPGVPSRFSGSGSGTDYTFTISSLQPEDIATYYCLQYEQLRTFGGGTKVEIKRTVAAPSVFIFPPSDEQLKSGTASVVCLLNNFYPREAKVQWKVDNALQSGNSQESVTEQDSKDSTYSLSSTLTLSKADYEKHKVYACEVTHQGLSSPVTKSFNRGEC
notes: Heterodimerized anti-epiregulin IgG1 antibody; L328W in both H chains
B3: H240-Kn166/H240-Hl170/L73-k0 (antibody, human IgG1, kappa)
heavy 1: QDQLVQSGAEVKKPGASVKVSCKASGFNIKDTYIQWVRQAPGQGLEWMGRIDPLRKQTKYREKFEGRVTITADTSTNTAYMELSSLRSEDTAVYYCVRSGREFDYWGQGTLVTVSSASTKGPSVFPLAPSSKSTSGGTAALGCLVKDYFPEPVTVSWNSGALTSGVHTFPAVLQSSGLYSLSSVVTVPSSSLGTQTYICNVNHKPSNTKVDKKVEPKSCDKTHTCPPCPAPEYYWGPMVFLFPPKPKDTLMISRTPEVTCVVVDVSDEDPEVKFNWYVDGVEVHNAKTKPREEQYNATYRVVSVLTVLHQDWLNGKEYKCKVSNKDAPAPIEKTISKAKGQPREPQVCTLPPSRDELTKNQVSLWCLVKGFYPSDIAVEWESNGQPENNYKTTPPVLDSDGSFFLYSKLTVDKSRWQQGNVFSCSVMHEALHNHYTQKSLSLSP
heavy 2: QDQLVQSGAEVKKPGASVKVSCKASGFNIKDTYIQWVRQAPGQGLEWMGRIDPLRKQTKYREKFEGRVTITADTSTNTAYMELSSLRSEDTAVYYCVRSGREFDYWGQGTLVTVSSASTKGPSVFPLAPSSKSTSGGTAALGCLVKDYFPEPVTVSWNSGALTSGVHTFPAVLQSSGLYSLSSVVTVPSSSLGTQTYICNVNHKPSNTKVDKKVEPKSCDKTHTCPPCPAPELLGGPSVFLFPPKPKDTLMISRTPEVTCVVVDVSHEEPEVKFNWYVDGVEVHNAKTKPREEQYNSTYRVVSVLTVLHQDWLNGKEYKCKVSNDAAPKPIEETISKAKGQPREPQVYTLPPSRCELTKNQVSLSCAVKGFYPSDIAVEWESNGQPENNYKTTPPVLDSDGSFFLVSKLTVDKSRWQQGNVFSCSVMHEALHNHYTQKSLSLSP
light: DIQMTQSPSSLSASVGDRVTITCRASQDIHKYIAWYQQKPGQAPRLLIQYTSTLQPGVPSRFSGSGSGTDYTFTISSLQPEDIATYYCLQYEQLRTFGGGTKVEIKRTVAAPSVFIFPPSDEQLKSGTASVVCLLNNFYPREAKVQWKVDNALQSGNSQESVTEQDSKDSTYSLSSTLTLSKADYEKHKVYACEVTHQGLSSPVTKSFNRGEC
notes: Heterodimerized anti-epiregulin IgG1 antibody; L328A in both H chains

Legend:
Assay in all cases: SPR (Biacore); KD of H240-Kn120/H240-Hl068/L73-k0 divided by KD of the sample
[1] = target: T4, FcgRIIIaF (human, UniProt P08637 17-208)
T4 construct: extracellular domain; Allotype F158; also called FcγRIIIa F; not shown: His tag attached to the C terminus
T4 sequence (P08637 17-208): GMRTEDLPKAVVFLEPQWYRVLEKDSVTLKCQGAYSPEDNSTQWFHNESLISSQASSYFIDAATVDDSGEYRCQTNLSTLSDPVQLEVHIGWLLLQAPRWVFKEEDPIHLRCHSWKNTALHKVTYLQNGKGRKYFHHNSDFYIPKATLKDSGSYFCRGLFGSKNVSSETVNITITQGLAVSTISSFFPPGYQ
Experimental: (§1) Analysis of interaction between objective antibody and the FcγR was carried out using Biacore T100 (GE Healthcare), Biacore T200, Biacore A100, and Biacore 4000. HBS-EP+ (GE Healthcare) was used as the running buffer, and the measurement temperature was set to 25° C. Chips produced by immobilizing the antigen peptide by the amine coupling method to a Series S sensor Chip CM5 (GE Healthcare), chips produced by allowing preliminarily biotinylated antigen peptides to interact with and immobilize onto a Series S Sensor Chip SA (certified) (GE Healthcare), chips produced by immobilizing Protein L (ACTIGEN, BioVision) to Series S Sencor Chip CM5 (GE Healthcare), or chips produced by immobilizing Protein A/G (Thermo Scientific) to Series S Sencor Chip CM5 (GE Healthcare) were used. Antibodies of interest were captured onto these chips, and allowed to interact to each FcγR diluted with running buffer. To regenerate and repeatedly use the chip, the antibodies captured onto the chip were washed off by reacting 10 mM glycine-HCl, pH 1.5.

[2] = target: T5, FcgRIa (human, UniProt P12314 16-292)
T5 construct: extracellular domain; Soluble extracellular domain expressed in FreeStyle293 cells; also called FcγRIa; FcγRI; not shown: His tag attached to the C terminus
T5 sequence (P12314 16-292): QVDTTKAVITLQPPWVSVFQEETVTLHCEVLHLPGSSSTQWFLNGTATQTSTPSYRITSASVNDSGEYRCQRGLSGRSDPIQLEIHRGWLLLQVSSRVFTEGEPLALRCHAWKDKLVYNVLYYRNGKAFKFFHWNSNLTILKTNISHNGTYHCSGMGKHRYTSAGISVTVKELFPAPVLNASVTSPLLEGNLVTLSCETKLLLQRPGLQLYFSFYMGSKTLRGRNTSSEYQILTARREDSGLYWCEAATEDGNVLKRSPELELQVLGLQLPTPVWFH
Experimental: as §1

[3] = target: T1, FcgRIIb
Experimental: as §1

[4] = target: T2, FcgRIIaH
Experimental: as §1

[5] = target: T6, FcgRIIIaV (human, UniProt P08637 17-208)
T6 construct: extracellular domain; Allotype V158; also called FcγRIIIa V; not shown: His tag attached to the C terminus
T6 sequence (P08637 17-208 F176V limits assumed): as the sequence (P08637 17-208) above, with F160V counted along it
Experimental: as §1

[6] = target: T3, FcgRIIaR
Experimental: as §1

Row | Binder | relative KD [1] | relative KD [2] | relative KD [3] | relative KD [4] | relative KD [5] | relative KD [6]
1 | B1 | 0.6 | 1 | 1.2 | 1.6 | 0.8 | 1.1
2 | B2 | 0.1 | 0.5 | 1.4 | 0.3 | 0 | 1.8
3 | B3 | 0.5 | 2.4 | 0.8 | 1.9 | 0.4 | 0.6

Reference: patent publication US20150344570A1 (published 2015)
